Reference: article PMC8653885, “Higher expression of the strawberry xyloglucan endotransglucosylase/hydrolase genes FvXTH9 and FvXTH6 accelerates fruit ripening” (The Plant Journal, 2019)

Tested on: T1, OC[C@@H](O)[C@@H](O[C@@H]1O[C@H](CO[C@H]2OC[C@@H](O)[C@H](O)[C@H]2O)[C@@H](O[C@@H]2O[C@H](CO[C@H]3OC[C@@H](O)[C@H](O)[C@H]3O)[C@@H](O[C@@H]3O[C@H](CO[C@H]4OC[C@@H](O)[C@H](O)[C@H]4O)[C@@H](O)[C@H](O)[C@H]3O)[C@H](O)[C@H]2O)[C@H](O)[C@H]1O)[C@H](O)[C@@H](O)CO
T1 construct: called FvXTH6 by Opazo et al. 2017
Test: radiochemical XET assay, 3H incorporation into xyloglucan, Michaelis-Menten
Type: biochemical, Fragaria vesca
Conditions: acceptor substrate, donor 1% (w/v) tamarind xyloglucan, [3H]XXXGol diluted with unlabelled XXXGol (0-357 μM), labelled compound, general XET assay: 100 mM Na succinate pH 5.5, 25 °C

Q: For FvXTH9 (Fragaria vesca subsp. vesca), which Km is on record?
A: 43 µM
